The values below come from doi:10.1101/2024.03.12.584703.

The term Kd denotes the constant that tells how readily two partners part at equilibrium. Lower therefore signals a tighter complex.

In this experiment the target is VCAP-102 capsid (adeno-associated virus 9) (UniProt Q6JC40). The experiment can be described thus: SPR. On the technique in general: In SPR one partner is held on a chip, and binding of the other changes the refractive index at the surface.

B1: His-tagged human ALPL (recombinant) (receptor)
chain: LVPEKEKDPKYWRDQAQETLKYALELQKLNTNVAKNVIMFLGDGMGVSTVTAARILKGQLHHNPGEETRLEMDKFPFVALSKTYNTNAQVPDSAGTATAYLCGVKANEGTVGVSAATERSRCNTTQGNEVTSILRWAKDAGKSVGIVTTTRVNHATPSAAYAHSADRDWYSDNEMPPEALSQGCKDIAYQLMHNIRDIDVIMGGGRKYMYPKNKTDVEYESDEKARGTRLDGLDLVDTWKSFKPRYKHSHFIWNRTELLTLDPHNVDYLLGLFEPGDMQYELNRNNVTDPSLSEMVVVAIQILRKNPKGFFLLVEGGRIDHGHHEGKAKQALHEAVEMDRAIGQAGSLTSSEDTLTVVTADHSHVFTFGGYTPRGNSIFGLAPMLSDTDKKPFTAILYGNGPGYKVVGGERENVSMVDYAHNNYQAQSAVPLRHETHGGEDVAVFSKGPMAHLLHGVHEQNYVPHVMAYAACIGANLGHCAPAS
Regarding B1, the Kd came out at 20 nM.
